From patent publication US20230110188A1 (ARGENX IIP, published 2023)

T1: Human MuSK (R&D Systems, cat. 10189-MK, histidine tag) (human, UniProt O15146 24-495)
T1 construct: Bought protein; also called human monomeric MuSK-6xhis; not shown: histidine tag (6xhis)
T1 sequence: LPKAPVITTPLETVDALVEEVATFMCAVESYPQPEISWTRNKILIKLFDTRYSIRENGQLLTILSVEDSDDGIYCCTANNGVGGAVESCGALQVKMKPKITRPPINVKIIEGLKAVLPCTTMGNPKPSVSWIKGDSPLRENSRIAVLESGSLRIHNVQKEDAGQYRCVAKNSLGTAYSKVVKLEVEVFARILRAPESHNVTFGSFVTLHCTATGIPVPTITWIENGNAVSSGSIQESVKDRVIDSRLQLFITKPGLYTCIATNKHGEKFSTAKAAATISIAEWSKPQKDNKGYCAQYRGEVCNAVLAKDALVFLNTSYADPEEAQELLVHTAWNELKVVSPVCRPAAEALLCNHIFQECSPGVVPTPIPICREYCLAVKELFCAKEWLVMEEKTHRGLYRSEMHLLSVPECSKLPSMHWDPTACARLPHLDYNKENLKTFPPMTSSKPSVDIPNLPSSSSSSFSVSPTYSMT

T2: hMuSK delta 1 (Ig2-3 Fz) (human, UniProt O15146)
T2 construct: truncated extracellular domain, captured by anti-FLAG
T2 sequence (truncated extracellular domain, looked up): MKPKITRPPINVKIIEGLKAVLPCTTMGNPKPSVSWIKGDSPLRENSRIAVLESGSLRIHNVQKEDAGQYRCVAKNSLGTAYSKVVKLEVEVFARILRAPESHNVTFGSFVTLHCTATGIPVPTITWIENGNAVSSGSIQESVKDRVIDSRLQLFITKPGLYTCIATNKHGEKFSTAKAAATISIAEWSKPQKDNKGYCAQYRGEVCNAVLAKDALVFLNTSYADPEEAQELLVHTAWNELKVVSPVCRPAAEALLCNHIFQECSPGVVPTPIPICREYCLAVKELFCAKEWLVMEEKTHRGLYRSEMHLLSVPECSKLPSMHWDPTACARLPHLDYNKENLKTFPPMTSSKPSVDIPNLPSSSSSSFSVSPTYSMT


Legend:
[1] = target: T1, Human MuSK (R&D Systems, cat. 10189-MK, …); test: SPR (Biacore), MuSK-coated chip presaturated with 500 nM 3D10a (competitor)
Experimental: (§1) A chip was coated with ˜5000 RU of human MuSK (Lot nr DHUCO 11908A, batch nr 1089_MK). In a first experiment the saturating concentration of the pre-leads was determined. This is the concentration where the amplitude of a specific pre-lead doesn't increase anymore when additional pre-lead is injected on the immobilized MuSK.

[2] = target: T1, Human MuSK (R&D Systems, cat. 10189-MK, …); test: SPR (Biacore), antibody captured on anti-hFc chip; 10 nM; dissociation pH 7.4
Excerpt: (§2) In order to study pH dependent binding of our antibodies to MuSK, the Biacore was used with the same setup as described in the paragraph entitled “Binding affinity for mouse, human and rhesus monkey recombinant MuSK in Biacore”. 6. […] For the other antibodies there is no real difference observed between pH 7.4 and 5.5.

[3] = target: T1, Human MuSK (R&D Systems, cat. 10189-MK, …); test: SPR (Biacore), antibody captured on anti-hFc chip; average of 0.3125-10 nM; dissociation pH 7.4
Excerpt: as §2

[4] = target: T1, Human MuSK (R&D Systems, cat. 10189-MK, …); test: SPR (Biacore), antibody captured on anti-hFc chip; 1.25 nM; dissociation pH 7.4
Excerpt: as §2

[5] = target: T1, Human MuSK (R&D Systems, cat. 10189-MK, …); test: SPR (Biacore), MuSK-coated chip presaturated with 500 nM 3F6c (competitor)
Experimental: as §1

[6] = target: T1, Human MuSK (R&D Systems, cat. 10189-MK, …); test: SPR (Biacore), antibody captured on anti-hFc chip; 0.625 nM; dissociation pH 7.4
Excerpt: as §2

[7] = target: T1, Human MuSK (R&D Systems, cat. 10189-MK, …); test: SPR (Biacore), MuSK-coated chip, antibody alone (run of first antibody 3F6c)
Experimental: as §1

hMuSK delta 1 (Ig2-3 Fz) = target: T2, hMuSK delta 1 (Ig2-3 Fz); test: ELISA, hMuSK delta 1 (Ig2-3 Fz) captured on anti-FLAG coat, antibody titrated, anti-human Fc HRP detection, OD450
Experimental: For binding to MuSK domains—An ELISA plate was coated with 0.5 μg/ml of anti-FLAG (M2 clone, Sigma Cat. F3165) and incubated overnight at 4° C. Next, the plate was washed with PBS and blocked with 1×PBS 1% casein for two hours at RT. After washing the plate, human monomeric MuSK FLAG streptavidin (batch 27-6-2019) and truncated MuSK variants (batch 3-9-2019) at 1 μg/ml in PBS where incubated for one hour at RT. After washing the plate, antibodies were diluted in blocking buffer and added to the plate. After a one hour incubation at RT, the plate was washed. Next, detecting antibody was added and incubated for one hour at RT (anti-human Fc HRP (1/5000) (clone 5A9, cat. No. Ab7499, ABCAM)) in blocking buffer. Lastly, the plate was washed with PBS and TMB was added and the reaction was stopped with 0.5 M H2SO4. OD 450 nm was determined by the Tecan Sunrise ELISA plate reader.
For the MuSK domain binding ELISA, binding of anti-MuSK antibodies to FLAG captured human monomeric MuSK and truncated variants was tested (FIG. 6). 3D9b, 3F6c, 3D10a, 4D3 and 3B5 bound only to full length MuSK, no binding was observed against the truncated MuSK variants. Therefore, we conclude that our antibodies bind to the Ig1 domain.

[8] = target: T1, Human MuSK (R&D Systems, cat. 10189-MK, …); test: SPR (Biacore), antibody captured on anti-hFc chip; 2.5 nM; dissociation pH 5.5
Excerpt: as §2

| amplitude of prelead after presaturating MuSK (RU) [1] [RU] | extra amplitude (%) [1] [%] | normalized extra amplitude (%) [1] [%] | koff [2] [s⁻¹] | koff [3] [s⁻¹] | koff [4] [s⁻¹] | amplitude of prelead after presaturating MuSK (RU) [5] [RU] | extra amplitude (%) [5] [%] | normalized extra amplitude (%) [5] [%] | koff [6] [s⁻¹] | amplitude of prelead without presaturating MuSK (RU) [7] [RU] | koff [8] [s⁻¹] | Binder | binding result (hMuSK delta 1 (Ig2-3 Fz)) |
| --- | --- | --- | --- | --- | --- | --- | --- | --- | --- | --- | --- | --- | --- |
| 56 | 1.8 | 0.2 | 0.00014 | 0.00016 | 0.00016 | 75 | 3.2 | 1.4 | 0.00013 | 2370 | 9e-05 | 3D10a (antibody, human IgG1, kappa, L234A L235A, V domains shown) VH: EVQLVESGGGLVKPGGSLRLSCAASGFTFSASTMAWVRQAPGKGLEWVSSVSGDSHHIYYADSLKGRFTISRDNAKNSLYLQMNSLRAEDTAVYYCARERLLRLGVGFDSWGQGTLVTVSS VL: DIQMTQSPSSLSASVGDRVTITCRASQRISGFVNWYQQKPGKAPKLLIYAASTLQSGVPSRFSGSGSGTDFTLTISSLQPEDFATYYCQQSYSPLYTFGQGTKLEIKR | no binding (tested: log(conc) 4.2 (about 16000 ng/ml)) |
| 169 | 8 | 6.4 | 8e-05 | 0.00012 | 0.00014 | 191 | 11.5 | 9.7 | 0.00014 | 1660 | 4e-05 | 3D9b (antibody, human IgG1, kappa, L234A L235A, V domains shown) VH: EVQLVESGGGLVKPGGSLRLSCAASGFTFSTYTMHWVRQAPGKGLEWVSSISSRSAYKYYADSVKGRFTISRDNAKNSLYLQMNSLRAEDTAVYYCARDFFQLGPPRFDSWGQGTLVTVSS VL: DIQMTQSPSSLSASVGDRVTITCRASQRISSFLNWYQQKPGKAPKLLIYGASNLQSGVPSRFSGSGSGTDFTLTISSLQPEDFATYYCQQSYSPSYTFGQGTKLEIKR | no binding (tested: log(conc) 4.2 (about 16000 ng/ml)) |
| 26 | 1 | -0.6 | 6e-05 | 8e-05 | 7e-05 | 64 | 1.8 | 0 | 4e-05 | 3640 | 0.0002 | 3F6c (antibody, human IgG1, kappa, L234A L235A, V domains shown) VH: EVQLVESGGGLVKPGGSLRLSCAASGFTFSSYTMDWVRQAPGKGLEWVSSIGSNGDYIYYADSVRGRFTISRDNAKNSLYLQMNSLRAEDTAVYYCARGQLAVAGTHFDYWGQGTLVTVSS VL: DIQMTQSPSSLSASVGDRVTITCRASQKVNKYVNWYQQKPGKAPKLLIYAASTLQSGVPSRFSGSGSGTDFTLTISSLQPEDFATYYCQQSYSPLSTFGQGTKLEIKR | no binding (tested: log(conc) 4.2 (about 16000 ng/ml)) |
| 42 | 1.6 | 0 | 0.00013 | 0.00014 | 0.00015 | 68 | 2.8 | 1.1 | 0.00016 | 2390 | 0.00014 | 4D3 (antibody, human IgG1, kappa, L234A L235A, V domains shown) VH: EVQLVESGGGLVKPGGSLRLSCAASGFTFSSYTMTWVRQAPGKGLEWVSSISSGGHYIYYTDSLKGRFTISRDNAKNSLYLQMNSLRAEDTAVYYCARERLLRLGVGFDFWGQGTLVTVSS VL: DIQMTQSPSSLSASVGDRVTITCRASQSISGYLNWYQQKPGKAPKLLIYAASTLQSGVPSRFSGSGSGTDFTLTISSLQPEDFATYYCQQSYSALYTFGQGTKLEIKR | no binding (tested: log(conc) 4.2 (about 16000 ng/ml)) |
